Measured values taken from PMC10786891, “Massively parallel profiling of RNA-targeting CRISPR-Cas13d”.

T1: EsCas13d, nuclease-dead (Eubacterium siraeum, UniProt B0MS50, R295A;H300A;R849A;H854A)
T1 sequence: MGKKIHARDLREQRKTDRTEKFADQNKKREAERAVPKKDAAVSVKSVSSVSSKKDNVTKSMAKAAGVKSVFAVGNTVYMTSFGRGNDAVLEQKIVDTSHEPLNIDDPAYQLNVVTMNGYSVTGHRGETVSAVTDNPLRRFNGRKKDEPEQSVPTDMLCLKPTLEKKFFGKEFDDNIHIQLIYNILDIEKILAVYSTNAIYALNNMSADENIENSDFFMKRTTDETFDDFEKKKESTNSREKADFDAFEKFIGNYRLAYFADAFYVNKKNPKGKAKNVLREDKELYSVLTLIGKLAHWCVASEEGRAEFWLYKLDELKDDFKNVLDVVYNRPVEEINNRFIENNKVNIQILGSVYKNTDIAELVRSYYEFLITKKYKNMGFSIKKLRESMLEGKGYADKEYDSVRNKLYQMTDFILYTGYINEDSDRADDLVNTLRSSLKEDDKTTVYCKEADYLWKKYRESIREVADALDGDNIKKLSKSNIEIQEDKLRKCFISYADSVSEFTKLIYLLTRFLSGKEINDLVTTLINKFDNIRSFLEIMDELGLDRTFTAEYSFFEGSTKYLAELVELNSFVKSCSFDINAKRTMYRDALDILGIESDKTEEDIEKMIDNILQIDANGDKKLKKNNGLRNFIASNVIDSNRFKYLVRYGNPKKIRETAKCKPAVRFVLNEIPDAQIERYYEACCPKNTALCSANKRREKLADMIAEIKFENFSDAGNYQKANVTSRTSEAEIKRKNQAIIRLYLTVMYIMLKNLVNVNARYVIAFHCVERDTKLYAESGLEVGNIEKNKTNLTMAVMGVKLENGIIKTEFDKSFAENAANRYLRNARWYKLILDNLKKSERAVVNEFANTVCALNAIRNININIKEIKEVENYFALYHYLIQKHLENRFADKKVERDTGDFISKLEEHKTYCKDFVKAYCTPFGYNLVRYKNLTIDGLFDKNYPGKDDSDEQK

B1: target 1 MT 5'PFS AGA 3'PFS AGA (mixed)
RNA 1: CACCCGUGCAAAAAUGCAGGGGUCUAAAACUGAGCGGAUAACCUCUCUAUGG
RNA 2: GGGAAUGGAUCCACAUCUACGAAUUCAGACCAUAGAGAGGUUAUCCGCUCAAGAAGAUCGGAAGAGCACACGU
B2: target 1 MT 5'PFS GUA 3'PFS AAU (mixed)
RNA 1: CACCCGUGCAAAAAUGCAGGGGUCUAAAACUGAGCGGAUAACCUCUCUAUGG
RNA 2: GGGAAUGGAUCCACAUCUACGAAUUCGUACCAUAGAGAGGUUAUCCGCUCAAAUAGAUCGGAAGAGCACACGU
B3: target 1 MT 5'PFS ACU 3'PFS UUU (mixed)
RNA 1: CACCCGUGCAAAAAUGCAGGGGUCUAAAACUGAGCGGAUAACCUCUCUAUGG
RNA 2: GGGAAUGGAUCCACAUCUACGAAUUCACUCCAUAGAGAGGUUAUCCGCUCAUUUAGAUCGGAAGAGCACACGU
B4: target 1 MT 5'PFS GGG 3'PFS GGC (mixed)
RNA 1: CACCCGUGCAAAAAUGCAGGGGUCUAAAACUGAGCGGAUAACCUCUCUAUGG
RNA 2: GGGAAUGGAUCCACAUCUACGAAUUCGGGCCAUAGAGAGGUUAUCCGCUCAGGCAGAUCGGAAGAGCACACGU
B5: target 1 MT 5'PFS UCC 3'PFS AGA (mixed)
RNA 1: CACCCGUGCAAAAAUGCAGGGGUCUAAAACUGAGCGGAUAACCUCUCUAUGG
RNA 2: GGGAAUGGAUCCACAUCUACGAAUUCUCCCCAUAGAGAGGUUAUCCGCUCAAGAAGAUCGGAAGAGCACACGU
B6: target 1 MT 5'PFS UCG 3'PFS UAU (mixed)
RNA 1: CACCCGUGCAAAAAUGCAGGGGUCUAAAACUGAGCGGAUAACCUCUCUAUGG
RNA 2: GGGAAUGGAUCCACAUCUACGAAUUCUCGCCAUAGAGAGGUUAUCCGCUCAUAUAGAUCGGAAGAGCACACGU
B7: target 1 MT 5'PFS UGU 3'PFS CAA (mixed)
RNA 1: CACCCGUGCAAAAAUGCAGGGGUCUAAAACUGAGCGGAUAACCUCUCUAUGG
RNA 2: GGGAAUGGAUCCACAUCUACGAAUUCUGUCCAUAGAGAGGUUAUCCGCUCACAAAGAUCGGAAGAGCACACGU
B8: target 1 MT 5'PFS GGG 3'PFS GGG (mixed)
RNA 1: CACCCGUGCAAAAAUGCAGGGGUCUAAAACUGAGCGGAUAACCUCUCUAUGG
RNA 2: GGGAAUGGAUCCACAUCUACGAAUUCGGGCCAUAGAGAGGUUAUCCGCUCAGGGAGAUCGGAAGAGCACACGU
B9: target 1 MT 5'PFS GGG 3'PFS GGU (mixed)
RNA 1: CACCCGUGCAAAAAUGCAGGGGUCUAAAACUGAGCGGAUAACCUCUCUAUGG
RNA 2: GGGAAUGGAUCCACAUCUACGAAUUCGGGCCAUAGAGAGGUUAUCCGCUCAGGUAGAUCGGAAGAGCACACGU
B10: target 1 MT 5'PFS UCG 3'PFS UAC (mixed)
RNA 1: CACCCGUGCAAAAAUGCAGGGGUCUAAAACUGAGCGGAUAACCUCUCUAUGG
RNA 2: GGGAAUGGAUCCACAUCUACGAAUUCUCGCCAUAGAGAGGUUAUCCGCUCAUACAGAUCGGAAGAGCACACGU
B11: target 1 MT 5'PFS GGG 3'PFS AGU (mixed)
RNA 1: CACCCGUGCAAAAAUGCAGGGGUCUAAAACUGAGCGGAUAACCUCUCUAUGG
RNA 2: GGGAAUGGAUCCACAUCUACGAAUUCGGGCCAUAGAGAGGUUAUCCGCUCAAGUAGAUCGGAAGAGCACACGU
B12: target 1 MT 5'PFS GAC 3'PFS AAG (mixed)
RNA 1: CACCCGUGCAAAAAUGCAGGGGUCUAAAACUGAGCGGAUAACCUCUCUAUGG
RNA 2: GGGAAUGGAUCCACAUCUACGAAUUCGACCCAUAGAGAGGUUAUCCGCUCAAAGAGAUCGGAAGAGCACACGU
B13: target 1 MT 5'PFS GAC 3'PFS AAU (mixed)
RNA 1: CACCCGUGCAAAAAUGCAGGGGUCUAAAACUGAGCGGAUAACCUCUCUAUGG
RNA 2: GGGAAUGGAUCCACAUCUACGAAUUCGACCCAUAGAGAGGUUAUCCGCUCAAAUAGAUCGGAAGAGCACACGU
B14: target 1 MT 5'PFS GUA 3'PFS AAC (mixed)
RNA 1: CACCCGUGCAAAAAUGCAGGGGUCUAAAACUGAGCGGAUAACCUCUCUAUGG
RNA 2: GGGAAUGGAUCCACAUCUACGAAUUCGUACCAUAGAGAGGUUAUCCGCUCAAACAGAUCGGAAGAGCACACGU
B15: target 1 MT 5'PFS GUA 3'PFS AAA (mixed)
RNA 1: CACCCGUGCAAAAAUGCAGGGGUCUAAAACUGAGCGGAUAACCUCUCUAUGG
RNA 2: GGGAAUGGAUCCACAUCUACGAAUUCGUACCAUAGAGAGGUUAUCCGCUCAAAAAGAUCGGAAGAGCACACGU
B16: target 1 MT 5'PFS ACU 3'PFS UUA (mixed)
RNA 1: CACCCGUGCAAAAAUGCAGGGGUCUAAAACUGAGCGGAUAACCUCUCUAUGG
RNA 2: GGGAAUGGAUCCACAUCUACGAAUUCACUCCAUAGAGAGGUUAUCCGCUCAUUAAGAUCGGAAGAGCACACGU
B17: target 1 MT 5'PFS ACU 3'PFS UUG (mixed)
RNA 1: CACCCGUGCAAAAAUGCAGGGGUCUAAAACUGAGCGGAUAACCUCUCUAUGG
RNA 2: GGGAAUGGAUCCACAUCUACGAAUUCACUCCAUAGAGAGGUUAUCCGCUCAUUGAGAUCGGAAGAGCACACGU
B18: target 1 MT 5'PFS AGA 3'PFS AGC (mixed)
RNA 1: CACCCGUGCAAAAAUGCAGGGGUCUAAAACUGAGCGGAUAACCUCUCUAUGG
RNA 2: GGGAAUGGAUCCACAUCUACGAAUUCAGACCAUAGAGAGGUUAUCCGCUCAAGCAGAUCGGAAGAGCACACGU
B19: target 1 C6G,U8A (mixed)
RNA 1: CACCCGUGCAAAAAUGCAGGGGUCUAAAACUGAGCGGAUAACCUCUCUAUGG
RNA 2: GGGAAUGGAUCCACAUCUACGAAUUCGUACCAUAGAGAGGUUAACGGCUCACCGAGAUCGGAAGAGCACACGU
B20: target 1 MT 5'PFS GUA 3'PFS AAG (mixed)
RNA 1: CACCCGUGCAAAAAUGCAGGGGUCUAAAACUGAGCGGAUAACCUCUCUAUGG
RNA 2: GGGAAUGGAUCCACAUCUACGAAUUCGUACCAUAGAGAGGUUAUCCGCUCAAAGAGAUCGGAAGAGCACACGU
B21: target 1 MT 5'PFS GCC 3'PFS CCU (mixed)
RNA 1: CACCCGUGCAAAAAUGCAGGGGUCUAAAACUGAGCGGAUAACCUCUCUAUGG
RNA 2: GGGAAUGGAUCCACAUCUACGAAUUCGCCCCAUAGAGAGGUUAUCCGCUCACCUAGAUCGGAAGAGCACACGU
B22: target 1 MT 5'PFS CAC 3'PFS CCG (mixed)
RNA 1: CACCCGUGCAAAAAUGCAGGGGUCUAAAACUGAGCGGAUAACCUCUCUAUGG
RNA 2: GGGAAUGGAUCCACAUCUACGAAUUCCACCCAUAGAGAGGUUAUCCGCUCACCGAGAUCGGAAGAGCACACGU
B23: target 1 MT 5'PFS UCG 3'PFS UAA (mixed)
RNA 1: CACCCGUGCAAAAAUGCAGGGGUCUAAAACUGAGCGGAUAACCUCUCUAUGG
RNA 2: GGGAAUGGAUCCACAUCUACGAAUUCUCGCCAUAGAGAGGUUAUCCGCUCAUAAAGAUCGGAAGAGCACACGU
B24: target 1 insC 3' of 13,insG 3' of 3 (mixed)
RNA 1: CACCCGUGCAAAAAUGCAGGGGUCUAAAACUGAGCGGAUAACCUCUCUAUGG
RNA 2: GGGAAUGGAUCCACAUCUACGAAUUCGUACCAUAGAGAGCGUUAUCCGCUGCACCGAGAUCGGAAGAGCACACGU

These binders were tested against T1, EsCas13d, nuclease-dead (assay: crRNA (strand 1, pre-loaded); Mg2+; 40 mM Tris-HCl pH 7.5, 150 mM NaCl, 6 mM MgCl2, 1 mM DTT, 0.1% Tween-20, 0.2 mg/ml BSA; 25 C; 10 min per concentration, then washed). Settings: tags: His6-TwinStrep-SUMO cleaved; N-terminal SNAP kept (SNAP-Surface 488); label: 3' end held by stalled T7 RNA polymerase.
B1 was tested, and the Kd was 70.5 ± 31.5 nM.
B2 showed a Kd of 17.8 ± 1.5 nM.
In the case of B3, the Kd is reported as 39.5 ± 15.5 nM.
Work on B4 yielded a Kd of 26.5 ± 5 nM.
In the case of B5, the Kd is reported as about 60 nM.
B6 was tested, and the Kd was 27 ± 5.5 nM.
In the case of B7, the Kd is reported as about 90 nM.
Work on B8 yielded a Kd of 65.5 ± 14 nM.
B9 was tested, and the Kd was 61 ± 14 nM.
Binder B10 has a Kd of 22.5 ± 9 nM.
Binder B11 has a Kd of 30.4 ± 4.65 nM.
In the case of B12, the Kd is reported as 50.5 ± 22.5 nM.
In the case of B13, the Kd is reported as about 50 nM.
In the case of B14, the Kd is reported as 20.4 ± 1.55 nM.
B15 showed a Kd of 26.4 ± 3.45 nM.
B16 gave a Kd of 52.5 ± 21 nM.
Work on B17 yielded a Kd of 46 ± 15 nM.
B18 showed a Kd of about 42.5 nM.
With B19 the Kd was 13.8 ± 0.6 nM.
Work on B20 yielded a Kd of 19.1 ± 1.2 nM.
B21 was tested, and the Kd was 8.9 ± 3 nM.
With B22 the Kd was 9.7 ± 2.45 nM.
B23 gave a Kd of 86.5 ± 38.5 nM.
B24 showed a Kd of 5.58 ± 0.3 nM.
